Paper PMC3900769 (Journal of molecular biology, 2009)
Several values for one entry are separate records, joined by “and”; a condition that tells them apart may be missing. Identical values can stand only once.

Experiments:
[1] = target: HPV11 E6 4C/4S separated from the MBP tag (human papillomavirus type 11) (UniProt P04019); test: SEC
[2] = target: E6AP peptide (Homo sapiens) (UniProt Q05086); test: SPR; settings: cited from earlier work
[3] = target: HPV11 MBP-E6 4C/4S (human papillomavirus type 11) (UniProt P04019); test: SEC
SEC = target: the molecule itself; test: SEC

Chain of E6AP peptide (Homo sapiens) (Q05086 whole entry): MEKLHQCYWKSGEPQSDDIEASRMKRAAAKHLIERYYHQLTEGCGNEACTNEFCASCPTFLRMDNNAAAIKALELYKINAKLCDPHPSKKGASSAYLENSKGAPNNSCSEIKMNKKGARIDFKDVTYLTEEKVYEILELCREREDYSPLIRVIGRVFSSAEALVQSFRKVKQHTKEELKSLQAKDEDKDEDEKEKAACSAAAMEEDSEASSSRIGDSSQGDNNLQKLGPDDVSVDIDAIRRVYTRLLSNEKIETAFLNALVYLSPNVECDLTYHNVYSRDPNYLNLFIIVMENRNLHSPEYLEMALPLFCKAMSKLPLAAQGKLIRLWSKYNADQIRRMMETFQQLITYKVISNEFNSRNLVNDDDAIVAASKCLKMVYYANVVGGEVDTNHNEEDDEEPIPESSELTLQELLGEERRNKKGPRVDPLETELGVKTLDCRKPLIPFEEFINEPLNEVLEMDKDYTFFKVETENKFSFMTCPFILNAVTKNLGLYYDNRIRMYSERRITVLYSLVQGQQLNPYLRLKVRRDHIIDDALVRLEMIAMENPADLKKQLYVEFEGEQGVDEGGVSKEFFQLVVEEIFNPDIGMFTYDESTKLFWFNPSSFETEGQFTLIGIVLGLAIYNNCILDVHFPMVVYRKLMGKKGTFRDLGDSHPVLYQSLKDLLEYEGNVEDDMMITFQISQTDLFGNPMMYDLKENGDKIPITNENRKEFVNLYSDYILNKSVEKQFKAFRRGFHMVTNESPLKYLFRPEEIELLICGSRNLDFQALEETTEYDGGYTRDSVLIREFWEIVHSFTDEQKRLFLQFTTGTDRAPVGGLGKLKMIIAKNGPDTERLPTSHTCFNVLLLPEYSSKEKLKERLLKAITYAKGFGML

Molecule: HPV11 E6 4C/4S separated from the MBP tag (from UniProt P04019 1-150) (natural protein)
- stoichiometry N [1]: 3 and 2

Molecule: HPV18 E6 (from UniProt P06463)
- Kd [2]: 30 µM

Molecule: HPV11 MBP-E6 4C/4S (from UniProt P04019 1-150) (natural protein)
- stoichiometry N [3]: 2 and 3

B1: wild-type HPV11 MBP-E6 (natural protein)
chain: MESKDASTSATSIDQLCKTFNLSLHTLQIQCVFCRNALTTAEIYAYAYKNLKVVWRDNFPFAACACCLELQGKINQYRHFNYAAYAPTVEEETNEDILKVLIRCYLCHKPLCEIEKLKHILGKARFIKLNNQWKGRCLHCWTTCMEDLLP
- stoichiometry N (SEC): 2

B2: wild-type BPV1 MBP-E6 (natural protein)
chain: MDLKPFARTNPFSGLDCLWCREPLTEVDAFRCMVKDFHVVIREGCRYGACTICLENCLATERRLWQGVPVTGEEAELLHGKTLDRLCIRCCYCGGKLTKNEKHRHVLFNEPFCKTRANIIRGRCYDCCRHGSRSKYP
- binding result (SEC): binds
